According to patent publication US20160222105A1 (MacroGenics, published 2016):

T1: gpA33 on human cancer cells (human, UniProt Q99795 22-319)
T1 sequence (looked up): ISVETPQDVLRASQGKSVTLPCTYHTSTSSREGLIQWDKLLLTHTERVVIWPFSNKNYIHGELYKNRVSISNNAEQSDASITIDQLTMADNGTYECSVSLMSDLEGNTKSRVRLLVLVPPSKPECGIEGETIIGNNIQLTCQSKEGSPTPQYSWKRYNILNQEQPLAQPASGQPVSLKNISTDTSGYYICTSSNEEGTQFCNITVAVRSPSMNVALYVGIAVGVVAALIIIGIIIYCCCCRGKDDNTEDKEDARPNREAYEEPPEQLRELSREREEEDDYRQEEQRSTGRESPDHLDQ

T2: human gpA33 (human, UniProt Q99795 22-235, limits assumed)
T2 construct: There it is printed only as gpA33; also called A33 antigen
T2 sequence (looked up): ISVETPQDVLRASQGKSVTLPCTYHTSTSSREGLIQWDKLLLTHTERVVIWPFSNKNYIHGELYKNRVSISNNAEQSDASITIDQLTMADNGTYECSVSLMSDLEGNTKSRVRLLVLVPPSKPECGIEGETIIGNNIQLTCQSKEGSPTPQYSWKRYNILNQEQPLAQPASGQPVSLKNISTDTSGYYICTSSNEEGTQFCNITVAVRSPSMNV

B1: gpA33 × CD3 bi-specific monovalent diabody (DART-1) (bispecific antibody)
chain 1: QAVVTQEPSLTVSPGGTVTLTCRSSTGAVTTSNYANWVQQKPGQAPRGLIGGTNKRAPWTPARFSGSLLGGKAALTITGAQAEDEADYYCALWYSNLWVFGGGTKLTVLGGGGSGGGGQVQLQQSGPELVKPGASVKISCKASGYTFSGSWMNWVKQRPGQGLEWIGRIYPGDGETNYNGKFKDKATLTADKSSTTAYMELSSLTSVDSAVYFCARIYGNNVYFDVWGAGTTVTVSSGGCGGGEVAALEKEVAALEKEVAALEKEVAALEK
chain 2: QIVLTQSPAIMSASPGERVTMTCSARSSISFMYWYQQKPGSSPRLLIYDTSNLASGVPVRFSGSGSGTSYSLTISRMEAEDAATYYCQQWSSYPLTFGSGTKLELKRGGGSGGGGEVQLVESGGGLVQPGGSLRLSCAASGFTFNTYAMNWVRQAPGKGLEWVARIRSKYNNYATYYADSVKDRFTISRDDSKNSLYLQMNSLKTEDTAVYYCVRHGNFGNSYVSWFAYWGQGTLVTVSSGGCGGGKVAALKEKVAALKEKVAALKEKVAALKE
notes: Disulfide-bonded heterodimer with murine anti-gpA33 variable domains; also called gpA33 × CD3 DART 1
B2: gpA33 × CD3 bi-specific monovalent diabody having an IgG Fc Domain version 2 (DART-2 w/Fc Version 2) (bispecific antibody)
chain 1: DKTHTCPPCPAPEAAGGPSVFLFPPKPKDTLMISRTPEVTCVVVDVSHEDPEVKFNWYVDGVEVHNAKTKPREEQYNSTYRVVSVLTVLHQDWLNGKEYKCKVSNKALPAPIEKTISKAKGQPREPQVYTLPPSREEMTKNQVSLWCLVKGFYPSDIAVEWESNGQPENNYKTTPPVLDSDGSFFLYSKLTVDKSRWQQGNVFSCSVMHEALHNHYTQKSLSLSPGKAPSSSPMEDIQLTQSPSFLSASVGDRVTITCSARSSISFMYWYQQKPGKAPKLLIYDTSNLASGVPSRFSGSGSGTEFTLTISSLEAEDAATYYCQQWSSYPLTFGQGTKLEIKGGGSGGGGEVQLVESGGGLVQPGGSLRLSCAASGFTFSTYAMNWVRQAPGKGLEWVGRIRSKYNNYATYYADSVKDRFTISRDDSKNSLYLQMNSLKTEDTAVYYCVRHGNFGNSYVSWFAYWGQGTLVTVSSGGCGGGKVAALKEKVAALKEKVAALKEKVAALKE
chain 2: QAVVTQEPSLTVSPGGTVTLTCRSSTGAVTTSNYANWVQQKPGQAPRGLIGGTNKRAPWTPARFSGSLLGGKAALTITGAQAEDEADYYCALWYSNLWVFGGGTKLTVLGGGGSGGGGQVQLVQSGAEVKKPGASVKVSCKASGYTFTGSWMNWVRQAPGQGLEWIGRIYPGDGETNYNGKFKDRVTITADKSTSTAYMELSSLRSEDTAVYYCARIYGNNVYFDVWGQGTTVTVSSGGCGGGEVAALEKEVAALEKEVAALEKEVAALEK
chain 3: not shown

What was measured:
soluble CD3 fragment = target: T3, soluble CD3 fragment (Homo sapiens (Human), UniProt P07766 23-127; P04234 22-101); assay: sandwich plate assay titled 'shCD3 capture/gpA33 detection': soluble CD3 immobilized, diabody titrated, bound diabody detected with gpA33; the signal needs binding to both CD3 and gpA33
T3 construct: copies: 1 + 1
Experimental: The detection of binding was assessed by the capacity of immobilized antibodies to additionally bind gpA33.

[1] = target: T1, gpA33 on human cancer cells; assay: cell-based or functional assay
human gpA33 = target: T2, human gpA33; assay: simultaneous-binding assay; group statement

T3 sequence (P07766 other isoform, or with tags, fused parts or gaps limits assumed): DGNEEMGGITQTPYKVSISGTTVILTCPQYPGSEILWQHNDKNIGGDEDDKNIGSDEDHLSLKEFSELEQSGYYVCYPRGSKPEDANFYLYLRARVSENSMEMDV

Row | Binder | EC50 (read off the curve) (soluble CD3 fragment) | EC50 of redirected killing, ASPC-1 cells, E:T 10:1 [1] | EC50 of redirected killing, Colo205 cells, E:T 10:1 [1] | EC50 of redirected killing, Colon CSLC cells, human PBMC E:T 25:1 [1] | binding result (human gpA33)
1 | B1 | ~200 ng/mL | 1.14 ng/mL | 0.585 ng/mL | 0.901 ng/mL | –
2 | B2 | – | – | – | – | binds
